Publication PMC10660547 (Antibodies, 2023)
Each block holds one binder with its values, some of them ahead of it.

Columns and labels:
[1] = molecular target: anti-IgD nanobody 072 (not stated (a llama and an alpaca were immunised)); assay: SPR; aδNb072 (100 nM) captured by an anti-His-tag antibody on a CM5 chip; Fab flowed over, two-fold dilution series 200 nM to 3 nM; Biacore T200, 25 °C, 10 mM HEPES pH 7.4, 150 mM NaCl, 0.05% P20; KD from koff/kon
[2] = molecular target: T1, Phl p 7 (with a C-terminal tryptophan residue, biotinylated) (Phleum pratense (timothy grass), UniProt O82040, biotin (EZ-Link Maleimide-PEG2-Biotin)); assay: SPR; biotinylated Phl p 7 immobilised on an SA chip, 50 nM HAPPID1 Fab captured by it, aδNb072 flowed over (200 nM to 3 nM); 25 °C, 10 mM HEPES pH 7.4, 150 mM NaCl, 0.05% P20, 5 mM CaCl2; details: both partners purified
T1 construct: Phl p 7, polcalcin family 2-EF hand protein of timothy grass (Phleum pratense) pollen; C-terminal tryptophan residue added to aid spectrophotometric detection; also called biotinylated Phl p 7; timothy grass pollen allergen Phl p 7; source: E. coli BL21(DE3), purified (HisTrap FF Crude, SEC Superdex 75)
T1 sequence (O82040 whole entry, looked up): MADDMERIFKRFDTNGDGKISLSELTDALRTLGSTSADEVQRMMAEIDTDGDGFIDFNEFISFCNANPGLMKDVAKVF

anti-IgD nanobody 072 (not stated (a llama and an alpaca were immunised)), sequence (heavy, as listed by the source): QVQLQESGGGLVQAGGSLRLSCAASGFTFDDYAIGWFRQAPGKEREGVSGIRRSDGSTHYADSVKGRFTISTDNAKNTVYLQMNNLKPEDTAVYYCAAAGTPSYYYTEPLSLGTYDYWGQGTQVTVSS

Kd [1]: 1.4 nM
koff [1]: 0.000822 s⁻¹
kon [1]: 586000 M⁻¹ s⁻¹
binding result [2]: binds
B1: HAPPID1 Fab with a C-terminal glycine4-serine linker and SpyTag on the heavy chain (Fab, V domains shown)
VH: QVQLVQSGAEVRNPGASVKVSCKASGYTFTSYAIHWVRQAPGHRLEWVGRINTDNGNTKYSQKFHGRVALSRDTSASTTYMDLSSLNSEDTAVYYCARAFYYSSGVMFDSWGQGALVTVSS
VL: QSALTQPPSVSGAPGQRVSISCTGGSSNFGAGYDVHWYQQLPATAPKLLIYGNNNRPSGVPDRFSGSKSGTSASLAITGLQAEDEGDYFCQSFDTSLSGWIFGGGTKLTVL
notes: as the heavy chain of m2 (VH of clone 102.1F10 with human Cδ1); as the light chain of m2 (lambda light chain of the HAPPI1 antibodies); Derived from pVITRO1-HAPPID1; also called SpyTagged HAPPID1 Fab; not shown: glycine4-serine linker and SpyTag, C-terminal, kept

Kd [1]: 3.64 nM
koff [1]: 0.000829 s⁻¹
kon [1]: 228000 M⁻¹ s⁻¹
B2: HAPPIE1 Fab (SpyTagged) (Fab, V domains shown)
VH: B1 VH
VL: B1 VL
